Measured values from article PMC10415612.
Read-outs that look alike come from different tables or passages of the source.

Legend:
[1] = target: bacterial proteasome activator (Bpa), fluorescein-labelled (M. tuberculosis) (UniProt P9WKX3); test: MST
[2] = target: bacterial proteasome activator (Bpa), fluorescein-labelled (M. tuberculosis) (UniProt P9WKX3)
[3] = target: bacterial proteasome activator (Bpa), labelled with RED-NHS second generation dye (M. tuberculosis) (UniProt P9WKX3); test: MST; temperature-related fluorescence intensity changes (T-jump model) on a Monolith NT.115; 250 nM Bpa-RED protomer titrated with serial dilutions of peptides 1-7; buffer M (50 mM HEPES-KOH pH 7.5, 150 mM NaCl, 5 mM MgCl2, 5% glycerol, 0.1% pluronic 127, 2% DMSO); 25°C; qualitative screen, then peptide 1 in triplicates
[4] = target: bacterial proteasome activator (Bpa), fluorescein-labelled (M. tuberculosis) (UniProt P9WKX3); test: MST; remark: listed apart in the source

Substance	Kd [1]	Bpa-mediated proteasomal degradation by 20S CP WT, SDS-PAGE time course, 37°C (unlabelled Bpa) (% degraded after 2 h) [2]	Kd [3]	Kd [4]	Bpa-mediated proteasomal degradation by 20S CP WT, SDS-PAGE time course, 37°C (unlabelled Bpa) (min to degradation) [2]
HspR H24A (natural protein)	12.1 µM	90			
HspR peptide 1 (residues 16-30)			330 µM		
HspRΔC9, C-terminal truncation variant of HspR (domain or fragment)				3.62 µM	
heat shock repressor HspR, wild type (natural protein)	3.56 µM			5.6 µM	< 5
